Data from patent publication US20120329707A1 (INDIANA UNIVERSITY RESEARCH AND TECHNOLOGY, published 2012).
Numbered stars: 1 amine (or outer) side, 2 acyl side, 3 side chain; on linkers, the order of the positions; unused ones are H or OH. Square brackets hold non-standard residues; d marks the D form. Primed or numbered codes have the meaning given here. Side chains are listed from the residue outwards. Ends that are not written are not given here. * marks the point of attachment. 40K‑TE PEG = 40 kDa PEG covalently bound via thioether, formed by reaction of the free thiol of the peptide (Cys side chain) with an iodoacetic-functionalized PEG; 40K‑TE PEG(3) = 40 kDa PEG bound to the Cys thiol via a thioether, made by reacting the free-thiol peptide with iodoacetic-functionalised PEG; 40K‑TE PEG″ = 40 kDa PEG bound to Cys via thioether made from an iodoacetyl-functionalised PEG; EDTA amide = ethylenediaminetetraacetic acid amide, O=C(O)CN(CCN(CC(=O)O)CC(=O)*)CC(=O)O; 20K‑TE PEG = 20 kDa PEG bound via thioether from iodoacetic-functioned PEG; benzoylpropionyl = benzoylpropionyl acyl group, O=C(CCC(=O)*)c1ccccc1; 12K‑ME PEG = 12 kDa PEG bound via maleimido-thioether; Acetyl(1-adamantyl) = O=C(CC12CC3CC(CC(C3)C1)C2)*; γGlu = O=C(O)[C@H](CCC(=O)[*:2])N[*:1]; Palmitoyl = CCCCCCCCCCCCCCCC(=O)*; Aib = CC(C)(N)C(=O)O

T1: GIP receptor
T1 sequence (P48546 whole entry, species assumed, looked up): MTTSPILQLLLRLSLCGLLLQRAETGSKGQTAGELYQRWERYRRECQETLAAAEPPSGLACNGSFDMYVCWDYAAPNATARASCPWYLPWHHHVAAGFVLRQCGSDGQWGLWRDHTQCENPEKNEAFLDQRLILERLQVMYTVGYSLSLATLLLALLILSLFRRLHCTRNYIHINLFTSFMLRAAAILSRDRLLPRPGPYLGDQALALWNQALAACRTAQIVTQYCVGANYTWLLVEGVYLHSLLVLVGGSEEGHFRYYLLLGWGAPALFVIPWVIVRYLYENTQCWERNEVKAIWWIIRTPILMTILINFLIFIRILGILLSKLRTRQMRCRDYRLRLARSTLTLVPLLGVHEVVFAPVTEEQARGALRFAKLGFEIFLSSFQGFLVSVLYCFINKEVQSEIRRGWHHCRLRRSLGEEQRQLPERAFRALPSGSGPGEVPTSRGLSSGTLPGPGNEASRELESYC


What was measured:
Experiment in all cases: cell-based or functional assay
glucagon receptor = molecular target: glucagon receptor
GLP-1 receptor = molecular target: GLP-1 receptor
GIP receptor = molecular target: T1, GIP receptor

Row | Binder | EC50 (nM) at glucagon receptor (glucagon receptor) [nM] | EC50 (nM) at GLP-1 receptor (GLP-1 receptor) [nM] | EC50 (nM) at GIP receptor (GIP receptor) [nM]
1 | H[Aib]QGTFTSDYSKYLDEKRA[Aib]EFVC(40K‑TE PEG)WLL[Aib]GGPSSGAPPPS-NH2 [peptide of SEQ ID NO: 51] | 2.04 | 0.062 | 
2 | H[Aib]QGTFTSDYSKYLDEKRA[Aib]DFVC(40K‑TE PEG(3))WLLDT-NH2 [peptide of SEQ ID NO: 54] | 0.939 | 0.097 | 
3 | H[dS]QGTFTSDK(benzoylpropionyl)SKYLDERAAQDFVQWLLDGGPSSGAPPPS-NH2 (N-terminus assumed; SMILES CC(C)C[C@H](NC(=O)[C@H](CC(C)C)NC(=O)[C@H](Cc1c[nH]c2ccccc12)NC(=O)[C@H](CCC(N)=O)NC(=O)[C@@H](NC(=O)[C@H](Cc1ccccc1)NC(=O)[C@H](CC(=O)O)NC(=O)[C@H](CCC(N)=O)NC(=O)[C@H](C)NC(=O)[C@H](C)NC(=O)[C@H](CCCNC(=N)N)NC(=O)[C@H](CCC(=O)O)NC(=O)[C@H](CC(=O)O)NC(=O)[C@H](CC(C)C)NC(=O)[C@H](Cc1ccc(O)cc1)NC(=O)[C@H](CCCCN)NC(=O)[C@H](CO)NC(=O)[C@H](CCCCNC(=O)CCC(=O)c1ccccc1)NC(=O)[C@H](CC(=O)O)NC(=O)[C@H](CO)NC(=O)[C@@H](NC(=O)[C@H](Cc1ccccc1)NC(=O)[C@@H](NC(=O)CNC(=O)[C@H](CCC(N)=O)NC(=O)[C@@H](CO)NC(=O)[C@@H](N)Cc1c[nH]cn1)[C@@H](C)O)[C@@H](C)O)C(C)C)C(=O)N[C@@H](CC(=O)O)C(=O)NCC(=O)NCC(=O)N1CCC[C@H]1C(=O)N[C@@H](CO)C(=O)N[C@@H](CO)C(=O)NCC(=O)N[C@@H](C)C(=O)N1CCC[C@H]1C(=O)N1CCC[C@H]1C(=O)N1CCC[C@H]1C(=O)N[C@@H](CO)C(N)=O) [peptide of SEQ ID NO: 49] | 0.063 | 0.01 | 
4 | H[Aib]QGTFTSDYSKYLDEKRA[Aib]EFVC(40K‑TE PEG)WLL[Aib]T-NH2 [peptide of SEQ ID NO: 41] | 0.309 | 0.074 | 
5 | H[dS]QGTFTSDK([γGlu-Palmitoyl])SKYLDEQAAKEFIC(12K‑ME PEG)WLLDT-NH2 [peptide of SEQ ID NO: 43] | 0.02 | 0.011 | 
6 | H[Aib]QGTFTSDYSKYLDEKRA[Aib]EFVC(40K‑TE PEG)WLLDT-NH2 [peptide of SEQ ID NO: 13] | 0.141 | 0.067 | 
7 | H[Aib]QGTFTSDYSKYLD[Aib]KRA[Aib]EFVC(40K‑TE PEG(3))WLLDGGPSSGAPPPS-NH2 [peptide of SEQ ID NO: 46] | 0.227 | 0.136 | 
8 | H[Aib]QGTFTSDYSKYLDEKRA[Aib]EFV[Aib]WLLC(40K‑TE PEG)T-NH2 [peptide of SEQ ID NO: 42] | 1.01 | 0.117 | 
9 | H[Aib]QGTFTSDYSKYLD[Aib]KRAKEFVQWLLC(40K‑TE PEG)T-OH [peptide of SEQ ID NO: 39] | 0.852 | 1.28 | 
10 | H[dS]QGTFTSDK(EDTA amide)SKYLDERAAQDFVQWLLDGGPSSGAPPPS-NH2 [peptide of SEQ ID NO: 55] | 4.34 | 0.108 | 
11 | H[Aib]QGTFTSDYSKYLDEKRA[Aib]EFVC(40K‑TE PEG)WLLDT-OH [peptide of SEQ ID NO: 45] | 0.651 | 1.44 | 
12 | H[Aib]QGTFTSDYSKYLDEK[Aib]AKEFVC(40K‑TE PEG(3))WLLDT-NH2 [peptide of SEQ ID NO: 52] | 4.5 | 0.054 | 
13 | H[dS]QGTFTSDK([γGlu-Palmitoyl])SKYLDEQAAKEFIC(20K‑TE PEG)WLLDT-NH2 [peptide of SEQ ID NO: 44] | 0.023 | 0.017 | 
14 | H[Aib]QGTFTSDYSKYLDEKRA[Aib]EFVC(40K‑TE PEG″)WLLDE-NH2 [peptide of SEQ ID NO: 16] | 0.563 | 0.487 | 465
15 | H[dS]QGTFTSDK([γGlu-Acetyl(1-adamantyl)])SKYLDERAAQDFVQWLLDT-NH2 (N-terminus assumed; SMILES CC(C)C[C@H](NC(=O)[C@H](Cc1ccc(O)cc1)NC(=O)[C@H](CCCCN)NC(=O)[C@H](CO)NC(=O)[C@H](CCCCNC(=O)CC[C@H](NC(=O)CC12CC3CC(CC(C3)C1)C2)C(=O)O)NC(=O)[C@H](CC(=O)O)NC(=O)[C@H](CO)NC(=O)[C@@H](NC(=O)[C@H](Cc1ccccc1)NC(=O)[C@@H](NC(=O)CNC(=O)[C@H](CCC(N)=O)NC(=O)[C@@H](CO)NC(=O)[C@@H](N)Cc1c[nH]cn1)[C@@H](C)O)[C@@H](C)O)C(=O)N[C@@H](CC(=O)O)C(=O)N[C@@H](CCC(=O)O)C(=O)N[C@@H](CCCNC(=N)N)C(=O)N[C@@H](C)C(=O)N[C@@H](C)C(=O)N[C@@H](CCC(N)=O)C(=O)N[C@@H](CC(=O)O)C(=O)N[C@@H](Cc1ccccc1)C(=O)N[C@H](C(=O)N[C@@H](CCC(N)=O)C(=O)N[C@@H](Cc1c[nH]c2ccccc12)C(=O)N[C@@H](CC(C)C)C(=O)N[C@@H](CC(C)C)C(=O)N[C@@H](CC(=O)O)C(=O)N[C@H](C(N)=O)[C@@H](C)O)C(C)C) [peptide of SEQ ID NO: 48] | 0.026 | 0.039 | 
16 | H[Aib]QGTFTSDYSKYLDEKRA[Aib]EFVC(40K‑TE PEG)WLLDGGPSSGAPPPS-NH2 [peptide of SEQ ID NO: 47] | 0.591 | 0.052 | 
17 | H[Aib]QGTFTSDYSKYLD[Aib]KRA[Aib]EFVC(40K‑TE PEG″)WLLDT-NH2 [peptide of SEQ ID NO: 38] | 0.141 | 0.31 | 
18 | H[Aib]QGTFTSDYSKYLD[Aib]KRAKEFVQWLLDTC(40K‑TE PEG″)-NH2 [peptide of SEQ ID NO: 40] | 1.19 | 0.653 | 
19 | H[dA]QGTFTSDK([γGlu-Palmitoyl])SKYLDERAAQDFVQWLLDT-NH2 [peptide of SEQ ID NO: 56] | 0.006 | 0.02 | 1.64
